# Data reported in patent US20040197338A1 (published 2004).
# B1: peptide N4.10 (peptide)
# peptide: KLCGMLLITE
# Molecular target: T1, P^His (recombinant RSV A2 phosphoprotein (P) with a Histidine tag at its amino terminus, expressed from pETP … (respiratory syncytial virus, A2 strain, UniProt P03421 1-241))
# T1 construct: also called P^His protein; recombinant P protein; not shown: N-terminal Histidine tag from vector pET16b
# Test: not described at this place (legend of FIG. 10)
binder,measurement,value
B1,binding result,binds
